Experimental data: the DeepSol protein solubility set

Assay: soluble on expression in E. coli; label from the status in PepcDB or PDB records

Row | Sequence | soluble on expression in E. coli
1 | MGSDKIHHHHHHMDITPFLDKKSKTPLYEQLYTFFKQEISHARITKGTRLPSKRRLSSLLDVSTATIERAYEQLTAEGYVKSKPKIGWFAAEVEPGFPTAPDHFQQSVQPGLHQKNAPAIDFHQGSVDPTLFPFNAWRKSIVKSLDRYSGSFHTSGDPQGEYELRHMIARFVRLSRGVNCEPGQIIIGAGTTVLLQNLCLSLKPGTKIGFEEPGFHRSRRMFEANHMDVTPICSDAEGVLPDELYRQNPYLMYTTPSHQFPIGTIMTITRRQELLAWAAETNSFIIEDDYDGEFRYSGHPIPSLQGLDPNGRVIYLGTFSKSLLPSLRLSFMIVPPELMEPIQNNVQLMKQTVSAHSQLALADFIETGEWQKHINRMRSLYRKKHAVLLEAIRSELGNTVEILGKNSGLHILLRLLFPASEEEAIQAAADHGVTLYPVSPSYIEQTPFTSVLIGYGGLSEEDIRLGIQKLKTAWAPLISSY | not soluble
2 | MAAFAVDPQAPTLGSEPMMLGSPTSPKTGANAQFLPGFLMGDLPAPVTPQPRSISGPSVGVMEMRSPLLAGGSPPQPVVPAHKDKSGAPPVRSIYDDISSPGLGSTPLTSRRQANISLLQSPLVGATPPVPGQSMFSPANIGQPRKTTLSPAQLDPFYTQGDSLTSEDHLDDTWVTVFGFPQASASYILLQFAQYGNILKHVMSNTGNWMHIRYQSKLQARKALSKDGRIFGESIMIGVKPCIDKNVMENSDRGVLSSPSLAFTTPIRTLGTPTQSGSTPRVSTMRPLATAYKASTSDYQVISDRQTPKKDESLVSRAMEYMFGW | soluble
3 | MGLLVNGIWQDQWYDTESTGGRFVRHDSQFRHWITPDGSPGPTGHGGFKAEAGRYHLYVSLACPWAHRTLIFRKLKGLEGMIDVSVVHWLMRENGWTFAPGPGVMPDPLFNAEYLYQIYTRADAQYSGRVTVPILWDKQKQTIVNNESSEIIRIFNSAFDGLGAKSGDYYPKALRTQIDALNDRIYHTINNGVYKCGFATTQTAYEEAIAPLFESLDWLEGILQGHQYLTGDEITEADWRLFTTLIRFDVVYVGHFKCNLRRIQDYPNLWRYLRDLYHQPGIAETVNFQHIKGHYYESHLNINPTGIVPMGPALDLSLALEHHHHHH | not soluble
4 | MAETIISLLSPTLDIKSPYYFNPDYLHQFNMHTNTAIDKLSEAKDNYAIWKLRFFDLLQFTNKTGFIDGTLPKPDPSSPYYEPWKQCNAIVLHWLSNTVTDTLQNHVLQAETVHKAWEDLRRIFVPCIDFKIYELRQRLATLRQGGDSVAEYFGKLSKAWLELKAYDPVQECKCGGCDCESEKRATEAREKEQRYAFLMGLNKEFDYVKMKVMHKKIPPSVYQAYEMVVYSEAMMKWKMGGRI | soluble
5 | MGHHHHHHSHMACYIYQLPSWVLDDLCRNMDALSEWDWMEFASYVITDLTQLRKIKSMERVQGVSITRELLWWWGMRQATVQQLVDLLCRLELYRAAQIILNWKPAPEI | not soluble
6 | MAHHHHHHMEWVPCTEQTGSVGCREGHCATSLQEKSTGEEWVLVVGGYCEGERDGAVMAARADGLPMLRWVRLDKPNMTWFECDGASLTHVTGDTAYFFGGLNEHMNHSNQLLCLSLHQGQQGDLSLDVVKVETTGDVPLPRARHSAGSAGRYFVVFGGETEDAEQNNDGYILDTDTMVWTRIPTGHQVPNPRLLAGPLVFYSPHGCILYGGAHFVNGDIRSMSDVWNLHIPLGGTWFNVSYGDGAPACRFPRSNGHAGGVLGRVGGETVVVFVGGKDAAEGCDRVKQVQPPKSAEDKFHLRLVDPVLAGGEGPHWRYTPAAVDTRRGVLLLGGQCRHPQEVAAFLLKQTGVTLQR | not soluble
7 | MSHLDEVIARVDAAIEESVIAHMNELLIALSDDAELSREDRYTQQQRLRTAIAHHGRKHKEDMEARHEQLTKGGTIL | soluble
8 | MGSDKIHHHHHHMIDSIRVEGFRGLKELELSSLRRINVIVGRNNSGKSTLLEALSLFLGSSDPGTFGNVLHEILIWRGWYGIQTVDDLFYNGGDSFSISSTGKTLEALNSKHSLEFKLNGEPFYKIDRESIRRLASQAVLLARFSPKENFEFLTPLTFRRFGYAESLYSYAYERKVVKDSIKVLNEAYPEVEGFSPLLKEDNWVLYVETKYGVYPYYLMGEGFKSAMIISFLSSLLRDGVLLIDSAEAFHHPKSLKVMIQTLVRGSEKNNVQVFLTTHSLELLDLMLEMGRDGFVIYMKNVEGRIEVESIEFQRASELRESIGVDLRGF | not soluble
9 | MGHHHHHHSHAAAIAGAKLRKVSRMEDTSFPSGGNAIGVNSASSKTDTGRGNGPLPLGGSGLMEEMSALLARRRRIAEKGSTIETEQKEDKGEDSEPVTSKASSTSTPEPTRKPWERTNTMNGSKSPVISRPKSTPLSQPSANGVQTEGLDYDRLKQDILDEMRKELTKLKEELIDAIRQELSKSNTA | soluble
10 | MIVNEINSSEEVLQIEQIDVEGQRAEYNRIQQERQDYQYAMRFAVHVDQVAVQALPIPAQSPEHLVAEHSNAQVPVDARPNPPTQSPAPRAAPDHGPVQAPRNLAQALNLPRRARGRPRRSDVRRTRDAQDSVATQQGPNAEQSGILVPPASRQQPEHSATSTISAPLSPASSTNMALQNAPSDHGDQLIRDSSEDRQNVPAPRRSARIASHTQYRTSPYVSARQGHRLAIARGRAAPGTLDPSASRQSIPSTSDAPVLVPHAPPAPPSPTLQDCVICMEEPVNPKVCPKCLKMIGCAKCFRWWTVFRCWWQSSLNPSCPLCRLKWDSAPKVIAAKKFYDGK | not soluble
11 | MSLSGCNGVPTSYVSDPVYSQAFVVTSGAPLPMLLMASAIQWNEDYAVTAKHTPFLRNVVHEGLGDVVFFKHKASSVPHWRQYVPGEAVTAVGFNSFMMPMQGKGHALSSLVRLEGTPGSVFYSVHDGPITKGMSGGPVFADDGKVVGINVAIIPTDEINAGKRPDLVGKDRISVFMSFSEIDKEWRRYQYLLAHKAKPKAPAAVKGYVAVAAKEGHHHHHH | soluble
12 | MSLKERFSPKMLSDITGVSIRTLHYYHEKGLLVPQQMSANGYRYYNVQDISKLQYILFLKELDLTLKQIQIYFEGDSDFRTKILHDNFYHIVKKRDRLNDIICTLEHHFHQDNEEIEVTTMQNFNLNEQYEKEAASKYGDTHYYQAYKDKQKSKDESEQQNHFEEINKQLNMFFDDMNQLYLNKVSILEASGKIKKLLCILKEQVPNCDNQFLEYIAQIYIEDERFVKFINKQRERGLNLYISDAIKTFIKEGHHHHHH | soluble
13 | RKEIQPIRELAKAATLMSSRLDVPEVSERGSNELKAAVRAFNKMNRRIDSHIKDREMLFSAISHDLKTPIACLKLRAEMLDDDADRERFIRLSNDLDLMVKGALQCIKETDIHEEIEPINFTQLIQHISSNIADAPDTIRIHGEIRTHFAGK | not soluble
14 | MVVGWHRPTRLHIDTQAITENVQKECQRLPEGTALFAVVKANGYGHGAVESAKAAKKGGATGFCVALLDEAIELREAGVQDPILILSVVDLAYVPLLIQYDLSVTVATQEWLEAALQQLTPESNTPLRVHLKVDTGMGRIGFLTPEETKQAVRFVQSHKEFLWEGIFTHFSTADEIDTSYFEKQAGRFKAVLAVLEELPRYVHVSNSATALWHPDVPGNMIRYGVAMYGLNPSGNKLAPSYALKPALRLTSELIHVKRLAAGEGIGYGETYVTEAEEWIGTVPIGYADGWLRHLQGFTVLVNGKRCEIVGRVCMDQCMIRLAEEVPVGPVVTLVGKDGNEENTLQMVAEKLETIHYEVACTFSQRIPREYN | soluble
15 | MKNEDGIINILLMGTDARPNEDSSRSDAMMILTIDNKHNDIKLTSLARDSYVDIPGHGKQKLTHAYAYGQADLLIQTIEENFNIDIQNYACVNFESFMYIIDAIGGVEVTVEKGEIRELNKFIPETYKWNKSDDKGSIQYIRNSGKQTLNGYQALSFARIRHNDTAFARDGRQRQIIQAIIKKTETLPVTKYPGLLDAVLPYVKTNMKPNAILSLGAQVLKMGDLNIKQFEFPIDDEIHSTGGIYGKAGWVLRFDPDTLDILHDFIFNDIEFKQLEHHHHHH | soluble
16 | MGSSHHHHHHSSGLVPRGSHMNKPIGVIDSGVGGLTVAKEIMRQLPNETIYYLGDIGRCPYGPRPGEQVKQYTVEIARKLMEFDIKMLVIACNTATAVALEYLQKTLSISVIGVIEPGARTAIMTTRNQNVLVLGTEGTIKSEAYRTHIKRINPHVEVHGVACPGFVPLVEQMRYSDPTITSIVIHQTLKRWRNSESDTVILGCTHYPLLYKPIYDYFGGKKTVISSGLETAREVSALLTFSNEHASYTEHPDHRFFATGDTTHITNIIKEWLNLSVNVERISVND | soluble
17 | MRIVALEGIDGSGVSTHSRLLHARLAGAGVKSCLWKEPTEGPVGRLIRGFLRSTEGVDSDLMALLFAADRLWGLRLGVVERCGGSPEVLVVDRYKYSSLAYQGVGSGLEWVDAVNRKAPEAEILVYIDVPTEVALRRITARERREVFETPEFLERVKSMYEEVLRLARARGVKVIRVEGVRGGVERGIEDVQGEIAERVFEALGLARA | soluble
18 | MRIFSRLFKARDKPKNSLFGNAYSFFFGGTSSGKAVNERTAMQTTAVYACVRILAEAIAGLPLHVYRYKEDGGKEKALTHPLYYLLHDEPNPEMTSFVFRETLMSHLLLWGNAYAQIVRDGSGRVLALYPLLPNKMTVDRAPNGELYYTYRRDSDESRVNPKAGLIYLRSDEVLHIPGLGFDGLIGYSPIAMAKNAIGMAIACEEYGASFFANGANPGGVLEHPGVLKDPAKVRESWNAVYQGSANAHRIAVLEEGMKFQPIGIPPEQAQFLETRKFQINEIARIFRVPPHMVGDLEKSSFSNIEQQSLEFVKYTLDPWVVRWEQALQKALLLPSEKRAYFVKFNVDGLLRGDYASRMNGYAVARQNGWMSANDIRELEDMNRIPAELGGDLYLVNGNMTRLADAGTFAGKNNAETEGSKVEQITKTKTGSPLLELDTKR | not soluble
19 | SRLDIIRAEMDVVPSPGLPEKVNEKSKNIPLPEGINLLSSKEIIDLIQTHRHQLELYVTKFNPLTDFAGKIHAFRDQFKQLEENFEDLHEQKDKVQALLENARILESKYVASWQDYHSEFSKKYGDIALKKKLEQNTKKLDEESSQLETTTRSIDSADDLDQFIKNYLDIRTQYHLRREKLATWDKQGNLKY | soluble
20 | MLLGYCGSGYYGMQYNPPHKTIEGEILTKLFDVGAISEENSLAPKKNSFMAAARTDKGVHAMLNLLSLKITLREDTVAKLNAALPPEIRVWGIQPVNKKFNARSACDSRWYQYLIPEFILIGPPRSSLLHRNVGGCYREDGSQEVWDTFLEQTRGRFSGDELCRLQDTAQKLSESDPLVQDYVGLLSGTLSGYCLSPSKLDAFEAAMQEYVGTHNFHNFTTGKLWGDPSAQRHIKKVVVSQASPGWICVRIHGQSFMLHQIRRMVALAVLAARCQLPPNIVRNYFNAGPRKYIPRAPAQGLLLEGPVFDGYNTKLRNLLYCEIRPDDITLERMCRFRERQICTAIAHEETQRHVFCHFVRQMNRLATPLI | not soluble
21 | SRTVALGIVAMACLVAIAHGGNFFQDAEVSWGQGRGKIVDGGRGLDLTLDRSSGSGFQSKSEYLFGKIDMQIKLVPGGWWNQELSDMSYRRMRWVQRKFMIYNYCTDAKRFPQGTPAECKLR | soluble
22 | MEKERETLQAWKERVGQELDRVMAFWLEHSHDREHGGFFTCLGRDGRVYDDLKYVWLQGRQVWMYCRLYRKLERFHRPELLDAAKAGGEFLLRHARVAPPEKKCAFVLTRDGRPVKVQRSIFSECFYTMAMNELWRVTAEARYQSEAVDMMDQIVHWVREDPSGLGRPQLPGAVASESMAVPMMLLCLVEQLGEEDEELAGRYAQLGHWCARRILQHVQRDGQAVLENVSEDGEELSGCLGRHQNPGHALEAGWFLLRHSSRSGDAKLRAHVIDTFLLLPFRSGWDADHGGLFYFQDADGLCPTQLEWAMKLWWPHSEAMIAFLMGYSESGDPALLRLFYQVAEYTFRQFRDPEYGEWFGYLNREGKVALTIKGGPFKGCFHVPRCLAMCEEMLSALLSRLA | soluble
